The target in experiment [1] is EncA-157ST (Myxococcus xanthus encapsulin shell protein EncA with the SpyTag peptide inserted between residues 157 and 158) (Myxococcus xanthus | Streptococcus pyogenes) (UniProt Q1D6H4). Description: negative-stain TEM; purified empty (unloaded) nanocompartments, 0.01-0.03 mg/mL, uranyl acetate 0.5% stain; subunit number read from the particle diameter.
Experiment [2] has the same target. Briefly: negative-stain TEM; purified nanocompartments loaded with sfGFP-CLP (coexpressed), 0.01-0.03 mg/mL, uranyl acetate 0.5% stain; subunit number read from the particle diameter.
Experiment [3] addresses EncA-ST (Myxococcus xanthus encapsulin shell protein EncA with the SpyTag peptide fused to its C-terminus) (Myxococcus xanthus | Streptococcus pyogenes). Description: negative-stain TEM; purified empty (unloaded) nanocompartments, 0.01-0.03 mg/mL, uranyl acetate 0.5% stain; subunit number read from the particle diameter.
The target is the same in experiment [4]. Description: negative-stain TEM; purified nanocompartments loaded with sfGFP-CLP (coexpressed), 0.01-0.03 mg/mL, uranyl acetate 0.5% stain; subunit number read from the particle diameter.

With “EncA-157ST (Myxococcus xanthus encapsulin shell protein EncA with the SpyTag peptide inserted between residues 157 and 158) (from UniProt Q1D6H4 1-157; Q1D6H4 158-287)”, the stoichiometry N was 60 subunits in experiment [1] and 180 subunits in experiment [2].
For the substance “EncA-ST (Myxococcus xanthus encapsulin shell protein EncA with the SpyTag peptide fused to its C-terminus)”, the values for the stoichiometry N in experiment [3] and in experiment [4] were 60 subunits and 180 subunits, respectively.

What is called stoichiometry N is a count of units in the complex or per binding partner.

Values taken from paper PMC11866011.
